According to US20240117056A1 (IBIO, published 2024):

Experiments:
[1] = target: T1, human EGFRvIII overexpressed on cells (F98npEGFRvIII, U87MG-EGFRvIII, FaDu-EGFRvIII) (human, UniProt P00533 25-1210); assay: cell-based or functional assay
[2] = target: T1, human EGFRvIII overexpressed on cells …; assay: flow cytometry, FaDu-EGFRvIII cells, n=3
[3] = target: T1, human EGFRvIII overexpressed on cells …; assay: cell-based or functional assay; remark: listed apart in the source
[4] = target: T1, human EGFRvIII overexpressed on cells …; assay: flow cytometry, U87MG-EGFRvIII cells, n=3
[5] = target: T2, human EGFRvIII, purified recombinant protein (Acro Biosystems Cat #EGI-H52H4) (human, UniProt P00533 25-645); assay: SPR (Carterra LSA), antibody captured on anti-human IgG, antigen injected, 1:1 Langmuir fit;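 also: EGFRvIII injected at five concentrations, fivefold serial dilution starting 500 nM, 5 min association then 15 min dissociation, double-referenced against interspot and buffer blank signals, global kinetic fit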
T2 construct: Bought protein; the deletion must be applied; also called truncated human EGFRvIII; huEGFRvIII

[6] = target: T1, human EGFRvIII overexpressed on cells …; assay: flow cytometry, F98npEGFRvIII cells, n=3
[7] = target: T3, human EGFR, purified recombinant protein (Acro Biosystems Cat #EGR-H5222) (human, UniProt P00533 25-645); assay: ELISA, plate coated with human EGFR1, anti-human IgG-HRP, OD450
T3 construct: Bought protein; also called EGFR1; full length human EGFR1

[8] = target: T1, human EGFRvIII overexpressed on cells …; assay: cell-based or functional assay; remark: listed apart in the source
[9] = target: T4, wild type human EGFR1 on cells (F98 EGFR1; wild type U87MG; wild type FaDu) (human, UniProt P00533 25-1210); assay: flow cytometry on F98 EGFR1 cells, anti-human IgG Fc Alexa Fluor 647, MFI
T4 construct: whole, on cells

[10] = target: T2, human EGFRvIII, purified recombinant …; assay: ELISA, antigen coated at 1 ug/mL, anti-human IgG-HRP, n=3
[11] = target: T3, human EGFR, purified recombinant …; assay: SPR (Carterra LSA), antibody captured on anti-human IgG, EGFR1 injected in a 5-fold series from 500 nM
[12] = target: T4, wild type human EGFR1 on cells (F98 …); assay: flow cytometry on wild type U87MG cells, anti-human IgG Fc Alexa Fluor 647, MFI
[13] = target: T3, human EGFR, purified recombinant …; assay: SPR (Carterra LSA), antibody captured on anti-human IgG, EGFR1 injected in a 5-fold series from 500 nM; remark: listed apart in the source

Binder	ADCC EC50 (nM), U87MG-EGFRvIII cells with PBMC [1] [nM]	EC50 [2] [nM]	ADCC EC50 (nM), FaDu-EGFRvIII cells with PBMC [3] [nM]	EC50 [4] [nM]	Kd [5] [nM]	koff [5] [s⁻¹]	kon [5] [M⁻¹ s⁻¹]	EC50 [6] [nM]	binding result [7]	ADCC EC50 (nM), F98 EGFRvIII cells with PBMC [8] [nM]	binding result [9]	EC50 [10] [nM]	binding result [11]	binding result [12]	binding result [13]
SD-233883-afuc (antibody, V domains shown, afucosylated, made in FUT8 knock-out CHO cells; also called chimera) VH: EVQLQQFGAELVKPGASVKLSCKASGYTFTSYDINWVRQRPEQGLEWIGWIFPGDGTSKYNEKFKGKATLSTDKSSSTAYMQLSRLTIEDSAVYFCARRLGSHWGQGSTLTVSS VL: DIVLTQSPASLAVSLGQRATISCKASQSVDSDGDSYMNWYQQKPGQPPKLLIYGASNLESGIPARFSGSGSGTDFSLNIHPVEEEDAATYYCQQSHEYPFTFGGGTKLEIK	0.0026	3.13	0.0039	4.05	40	0.003	74000	2.07	no binding	0.0082	no binding	0.144			
SD-382591-afuc (antibody, V domains shown, afucosylated (FUT8 knock-out CHO)) VH: EVQLVQSGAEVKKPGASVKVSCKASGYTFTSYDINWVRQAPGQGLEWMGWIFPGDGTSKYAQKFQGRVTMTTDTSTSTAYMELSSLRSEDTAVYYCARRLGSHWGQGTTVTVSS VL: DIQLTQSPSSLSASVGDRVTITCKASQSVDSDGDSYMNWYQQKPGKAPKLLIYGASNLESGVPSRFSGSGSGTDFTLTISSLQPEDFATYYCQQSHEYPFTFGQGTKLEIK					131	0.0087	66000	4.13	no binding	0.106	no binding	0.103			
SD-837152-afuc (antibody, V domains shown, afucosylated (FUT8 knock-out CHO)) VH: QVQLVQSGAEVKKPGASVKVSCKASGYTFTSYDINWVRQAPGQRLEWMGWIFPGDGTSKYNEKFKGRVTITRDTSASTAYMELSSLRSEDTAVYYCARRLGSHWGQGTLVTVSS VL: DIVLTQSPASLAVSPGQRATITCKASQSVDSDGDSYMNWYQQKPGQPPKLLIYGASNLESGVPARFSGSGSGTDFTLTINPVEANDTANYYCQQSHEYPFTFGQGTKLEIK	0.0036	4.98	0.0058	5.75	60	0.0026	43000					0.155	no binding	no binding	
SD-633416-afuc (antibody, V domains shown, afucosylated (FUT8 knock-out CHO)) VH: EVQLVQSGAEVKKPGASVKVSCKASGYTFTSYDINWVRQAPGQGLEWMGWIFPGDGTSKYAQKFQGRVTMTRDTSTSTVYMELSSLRSEDTAVYYCARRLGSHWGQGTTVTVSS VL: DIQMTQSPSSLSASVGDRVTITCKASQSVDSDGDSYMNWYQQKPGKAPKLLIYGASNLESGVPSRFSGSGSGTDFTLTISSLQPEDFATYYCQQSHEYPFTFGQGTKLEIK					234	0.016	67000	13.8	no binding	0.289	no binding	0.121			
SD-787077-afuc (antibody, V domains shown, afucosylated (FUT8 knock-out CHO)) VH: EVQLVQSGAEVKKPGASVKVSCKASGYTFTSYDINWVRQAPGQGLEWMGWIFPGDGTSKYAQKFQGRVTMTTDKSTSTAYMELSSLRSEDTAVYYCARRLGSHWGQGTTVTVSS VL: DIQLTQSPSSLSASVGDRVTITCKASQSVDSDGDSYMNWYQQKPGKAPKLLIYGASNLESGVPSRFSGSGSGTDFTLTISSLQPEDFATYYCQQSHEYPFTFGQGTKLEIK					108	0.0077	71000	3.91		0.0605	no binding	0.126	no binding		
SD-757052-afuc (antibody, V domains shown, afucosylated (FUT8 knock-out CHO)) VH: EVQLVQSGAEVKKPGASVKLSCKASGYTFTSYDINWVRQAPGQGLEWIGWIFPGDGTSKYAQKFQGRATLTTDTSTSTAYMELSSLRSEDTAVYYCARRLGSHWGQGTTLTVSS VL: DIQLTQSPSSLSASVGDRATITCKASQSVDSDGDSYMNWYQQKPGKAPKLLIYGASNLESGIPSRFSGSGSGTDFTLTISSVQPEDFATYYCQQSHEYPFTFGQGTKLEIK					105	0.006	57000	4.17		0.0562	no binding	0.112			no binding

More lines, in order of falling Kd [5], values ahead:

ADCC EC50 (nM), U87MG-EGFRvIII cells with PBMC [1] [nM]	EC50 [2] [nM]	ADCC EC50 (nM), FaDu-EGFRvIII cells with PBMC [3] [nM]	EC50 [4] [nM]	Kd [5] [nM]	koff [5] [s⁻¹]	kon [5] [M⁻¹ s⁻¹]	EC50 [6] [nM]	binding result [7]	ADCC EC50 (nM), F98 EGFRvIII cells with PBMC [8] [nM]	binding result [9]	EC50 [10] [nM]	binding result [11]	binding result [12]	binding result [13]	Binder
				159	0.011	66000	5.12		0.123	no binding	0.091			no binding	SD-741396-afuc (antibody, V domains shown, afucosylated (FUT8 knock-out CHO)) VH: EVQLVQSGAEVKKPGASVKVSCKASGYTFTSYDINWVRQAPGQGLEWMGWIFPGDGTSKYAQKFQGRVTMTTDTSTSTAYMELSSLRSEDTAVYYCARRLGSHWGQGTTVTVSS VL: DIQLTQSPSSLSASVGDRATITCKASQSVDSDGDSYMNWYQQKPGKAPKLLIYGASNLESGIPSRFSGSGSGTDFTLTISSVQPEDFATYYCQQSHEYPFTFGQGTKLEIK
				122	0.0088	73000	3.21	no binding	0.111	no binding	0.102				SD-638526-afuc (antibody, V domains shown, afucosylated (FUT8 knock-out CHO)) VH: EVQLVQSGAEVKKPGASVKVSCKASGYTFTSYDINWVRQAPGQGLEWMGWIFPGDGTSKYAQKFQGRVTMTTDKSTSTAYMELSSLRSEDTAVYYCARRLGSHWGQGTTVTVSS VL: DIQLTQSPSSLSASVGDRATITCKASQSVDSDGDSYMNWYQQKPGKAPKLLIYGASNLESGIPSRFSGSGSGTDFTLTISSVQPEDFATYYCQQSHEYPFTFGQGTKLEIK
				100	0.0058	57000	3.46	no binding	0.0687	no binding	0.122				SD-577776-afuc (antibody, V domains shown, afucosylated (FUT8 knock-out CHO)) VH: EVQLVQSGAEVKKPGASVKLSCKASGYTFTSYDINWVRQAPGQGLEWIGWIFPGDGTSKYAQKFQGRATLTTDKSTSTAYMELSSLRSEDTAVYYCARRLGSHWGQGTTLTVSS VL: DIQLTQSPSSLSASVGDRATITCKASQSVDSDGDSYMNWYQQKPGKAPKLLIYGASNLESGIPSRFSGSGSGTDFTLTISSVQPEDFATYYCQQSHEYPFTFGQGTKLEIK
				90	0.0048	53000	3.85		0.0738	no binding	0.111	no binding			SD-844257-afuc (antibody, V domains shown, afucosylated (FUT8 knock-out CHO)) VH: EVQLVQSGAEVKKPGASVKLSCKASGYTFTSYDINWVRQAPGQGLEWIGWIFPGDGTSKYAQKFQGRATLTTDTSTSTAYMELSSLRSEDTAVYYCARRLGSHWGQGTTLTVSS VL: DIQLTQSPSSLSASVGDRVTITCKASQSVDSDGDSYMNWYQQKPGKAPKLLIYGASNLESGVPSRFSGSGSGTDFTLTISSLQPEDFATYYCQQSHEYPFTFGQGTKLEIK
				86	0.0043	51000	4.02		0.0168	no binding	0.137			no binding	SD-710726-afuc (antibody, V domains shown, afucosylated (FUT8 knock-out CHO)) VH: EVQLVQSGAEVKKPGASVKLSCKASGYTFTSYDINWVRQAPGQGLEWIGWIFPGDGTSKYAQKFQGRATLTTDKSTSTAYMELSSLRSEDTAVYYCARRLGSHWGQGTTLTVSS VL: DIQLTQSPSSLSASVGDRVTITCKASQSVDSDGDSYMNWYQQKPGKAPKLLIYGASNLESGVPSRFSGSGSGTDFTLTISSLQPEDFATYYCQQSHEYPFTFGQGTKLEIK
